In doi:10.1101/2024.04.06.588386:

What was measured:
[1] = target: HPeV3-2A (2A^H/NC protein of human parechovirus 3) (Human parechovirus 3 (HPeV3)); assay: SEC-MALS
[2] = target: HPeV3-2A (2A^H/NC protein of human parechovirus 3) (Human parechovirus 3 (HPeV3)); assay: SEC-SAXS
[3] = target: HPeV3-2A (2A^H/NC protein of human parechovirus 3) (Human parechovirus 3 (HPeV3)); assay: crystal structure
[4] = target: LV1-2A2 (2A2 protein of Ljungan virus 1, isolate 87-012) (Ljungan virus 1 (isolate 87-012)); assay: crystal structure
[5] = target: LV4-2A2 (full-length 2A2 protein of Ljungan virus 4, strain 64-7855) (Ljungan virus 4 (strain 64-7855)); assay: SEC-MALS
[6] = target: LV4-2A2 (full-length 2A2 protein of Ljungan virus 4, strain 64-7855) (Ljungan virus 4 (strain 64-7855)); assay: SEC-SAXS
[7] = target: LV4-2A2^1-122 (C-terminally truncated 2A2 protein of Ljungan virus 4) (Ljungan virus 4 (strain 64-7855)); assay: SEC-MALS
[8] = target: LV4-2A2^1-122 (C-terminally truncated 2A2 protein of Ljungan virus 4) (Ljungan virus 4 (strain 64-7855)); assay: crystal structure
[9] = target: SEBV1-2A2 (2A2 protein of Sebokele virus 1) (Sebokele virus 1 (SEBV1)); assay: SEC-MALS
[10] = target: SEBV1-2A2 (2A2 protein of Sebokele virus 1) (Sebokele virus 1 (SEBV1)); assay: SEC-SAXS
[11] = target: SEBV1-2A2 (2A2 protein of Sebokele virus 1) (Sebokele virus 1 (SEBV1)); assay: crystal structure

HPeV3-2A (2A^H/NC protein of human parechovirus 3) (natural protein)
stoichiometry N [1]: 2 | stoichiometry N [2]: 2 | stoichiometry N [3]: 4

LV1-2A2 (2A2 protein of Ljungan virus 1, isolate 87-012) (natural protein)
stoichiometry N [4]: 2

LV4-2A2 (full-length 2A2 protein of Ljungan virus 4, strain 64-7855) (natural protein)
stoichiometry N [5]: 2 | stoichiometry N [6]: 2

LV4-2A2^1-122 (C-terminally truncated 2A2 protein of Ljungan virus 4) (domain or fragment)
stoichiometry N [7]: 2 | stoichiometry N [8]: 2

SEBV1-2A2 (2A2 protein of Sebokele virus 1) (natural protein)
stoichiometry N [9]: 2 | stoichiometry N [10]: 2 | stoichiometry N [11]: 2
